Data on nine molecules can be found in patent publication US20120021995A1 (published 2012).

For assay [1], the target named is T1, DR4 (TRAIL-R1) on cancer cells (human, UniProt O00220 24-468).
T1 sequence: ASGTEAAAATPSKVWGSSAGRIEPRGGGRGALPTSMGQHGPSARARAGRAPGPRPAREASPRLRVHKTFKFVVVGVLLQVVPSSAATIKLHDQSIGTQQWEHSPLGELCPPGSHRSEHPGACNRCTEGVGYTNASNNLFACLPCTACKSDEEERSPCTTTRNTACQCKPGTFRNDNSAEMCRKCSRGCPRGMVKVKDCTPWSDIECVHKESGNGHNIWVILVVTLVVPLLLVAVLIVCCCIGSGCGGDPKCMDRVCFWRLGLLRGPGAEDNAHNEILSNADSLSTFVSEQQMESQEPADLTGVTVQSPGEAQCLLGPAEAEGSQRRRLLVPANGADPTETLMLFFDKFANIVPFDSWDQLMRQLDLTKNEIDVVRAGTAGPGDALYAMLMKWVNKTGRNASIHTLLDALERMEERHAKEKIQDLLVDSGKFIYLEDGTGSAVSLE
Kind of assay: cell-based or functional assay.

Assay [2] concerns the target DR5 (TRAIL-R2) on cancer cells (human, UniProt O14763 56-440). Kind of assay: cell-based or functional assay.
Assay [3] concerns the target T2, recombinant human TRAIL R2 (DR5)/Fc chimera (human, UniProt O14763 54-182).
T2 construct: bought (R&D Systems); not shown: Fc of the bought chimera (R&D Systems)
Kind of assay: SPR (Biacore), DR5-Fc captured by anti-Fc, ATRIMER analyte; apparent. The procedure: (§1) Immobilization of an anti-human IgG Fc antibody (Biacore) to the CM5 chip (Biacore) was performed using standard amine coupling chemistry and this surface was used to capture recombinant human DR4 or DR5 receptor Fc fusion protein (R&D Systems). ATRIMER™ dilutions (1-500 nM) were injected over the DR4 and DR5 receptor surface at 30 μl/min and kinetic constants were derived from the sensorgram data using the Biaevaluation software (version 3.1, Biacore). Data collection was 3 minutes for the association and 5 minutes for dissociation. The anti-human IgG surface was regenerated with a 30 s pulse of 3 M magnesium chloride. All sensorgrams were double-referenced against an activated and blocked flow-cell as well as buffer injections.
(In general: In SPR one partner is held on a chip, and binding of the other changes the refractive index at the surface.)

In assay [4] the target is T1, DR4 (TRAIL-R1) on cancer cells. Kind of assay: cell-based or functional assay. The source holds these as a separate data set.
The target of assay [5] is T3, recombinant human TRAIL R1 (DR4)/Fc chimera (human, UniProt O00220 24-239).
T3 construct: bought (R&D Systems); not shown: Fc of the bought chimera (R&D Systems)
T3 sequence: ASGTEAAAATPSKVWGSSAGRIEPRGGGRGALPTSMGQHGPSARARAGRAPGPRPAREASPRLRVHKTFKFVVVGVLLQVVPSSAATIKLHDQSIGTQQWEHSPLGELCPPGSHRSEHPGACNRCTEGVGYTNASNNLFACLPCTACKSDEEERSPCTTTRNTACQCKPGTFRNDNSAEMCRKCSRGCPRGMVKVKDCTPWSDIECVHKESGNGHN
Kind of assay: SPR (Biacore), ATRIMER. The protocol: as §1
Clones were then sub-cloned into pANA19 for expression and purification as described above. Cell killing activity was measured as described above, and binding affinity was measured by Biacore.

Assay [6] deals with T1, DR4 (TRAIL-R1) on cancer cells. Kind of assay: cell-based or functional assay. This is another data set of the same source.
Assay [7] has the same target. Kind of assay: cell-based or functional assay. This is another data set of the same source.

In assay [1], “rhTRAIL-His (from UniProt P50591 95-281) (ligand)” had an EC50 Colo205 (cell killing) of 0.06 nM and an EC50 ST486 (cell killing) of 0.06 nM.

B1: 029-15.A8G (designed binder)
chain: EPPTQKPKKIVNAKKDVVNTKMFEELKSRLDTLAQEVALLKEQQALQTVCLKGTKVHMKCFLAFTQTKTFHEASEDCISRGGTLSTPQTGSENDALYEYLRQSVGNEAEIWLGLNRAWLRPRWVDMTGARIAYKNWETEITAQPDGGTLVSGENCAVLSGAANGKWFDKRCRDQLPYICQFGIV
notes: ATRIMER; also called 1a7b
Regarding B1, in assay [2], the “% cell death of H2122 and A2780 cells, 20 µg/mL, 20 h” value (“% cell death of H2122 and A2780 cells” for short) is above 50%. Moreover, in assay [3], the Ka is 6.43e+07 M⁻¹, the Kd is 15.6 nM, the koff was 0.000629 s⁻¹ and the kon was determined as 40500 M⁻¹ s⁻¹.

B2: 029-15.A1H (designed binder)
chain: EPPTQKPKKIVNAKKDVVNTKMFEELKSRLDTLAQEVALLKEQQALQTVCLKGTKVHMKCFLAFTQTKTFHEASEDCISRGGTLSTPQTGSENDALYEYLRQSVGNEAEIWLGLNRAVLRPRWVDMTGARIAYKNWETEITAQPDGGWVLGGKNCAVLSGAANGKWFDKRCRDQLPYICQFGIV
notes: ATRIMER; also called 8b6b
On to B2, for which the “% cell death of H2122 and A2780 cells” value in assay [2] was above 50%. Moreover, in assay [3], the Ka amounted to 2.56e+07 M⁻¹, the Kd came to 39.1 nM, the koff turned out to be 0.000506 s⁻¹ and the kon was found to be 12900 M⁻¹ s⁻¹.

B3: 29p61P1E11 (designed binder)
chain: EPPTQKPKKIVNAKKDVVNTKMFEELKSRLDTLAQEVALLKEQQALQTVCLKGTKVHMKCFLAFTQTKTFHEASEDCISRGGTLSTPQTGSENDALYEYLRQSVGNEAEIWLGLNGWLEGVGWVDMTGARIAYKNWETEITAQPDGGWPFSNENCAVLSGAANGKWFDKRCRDQLPYICQFGIV
notes: ATRIMER; also called 029-61.1E11
Regarding B3, the “ED50 ST486 (cell killing)” value in assay [4] came out at 217 nM. Further, in assay [5], the Kd stood at 3.2 nM, the koff turned out to be 0.000302 s⁻¹ and the kon turned out to be 93800 M⁻¹ s⁻¹. For the same molecule, the “ED50 (nM) ST486 (cell killing)” value in assay [6] was 217 nM.

B4: 71p88P1B3 (designed binder)
chain: EPPTQKPKKIVNAKKDVVNTKMFEELKSRLDTLAQEVALLKEQQALQTVCLKGTKVHMKCFLAFTQTKTFHEASEDCISRGGTLSTPQTGSENDALYEYLRQSVGNEAEIWLGLNGWLEGSGWVDMTGARIAYKNWETEITAQPDGGVQWRWENCAVLSGAANGKWFDKRCRDQLPYICQFGIV
In the case of B4, in assay [7], the “Colo205 % killing (% of TRAIL activity)” value is 42%, the “H2122 % killing (% of TRAIL activity)” value was determined as 0% and the “ST486 % killing (% of TRAIL activity)” value stood at 88%. In addition, the “ED50 ST486 (cell killing)” value in assay [4] is 3.2 nM.

B5: 71p88P1G4 (designed binder)
chain: EPPTQKPKKIVNAKKDVVNTKMFEELKSRLDTLAQEVALLKEQQALQTVCLKGTKVHMKCFLAFTQTKTFHEASEDCISRGGTLSTPQTGSENDALYEYLRQSVGNEAEIWLGLNGYMTGVGWVDMTGARIAYKNWETEITAQPDGGRSWKWENCAVLSGAANGKWFDKRCRDQLPYICQFGIV
Regarding B5, in assay [7], the “Colo205 % killing (% of TRAIL activity)” value was 24%, the “H2122 % killing (% of TRAIL activity)” value was determined as 5% and the “ST486 % killing (% of TRAIL activity)” value is 75%. For the same molecule, the “ED50 ST486 (cell killing)” value in assay [4] was 75 nM.

B6: 71p88P1F2 (designed binder)
chain: EPPTQKPKKIVNAKKDVVNTKMFEELKSRLDTLAQEVALLKEQQALQTVCLKGTKVHMKCFLAFTQTKTFHEASEDCISRGGTLSTPQTGSENDALYEYLRQSVGNEAEIWLGLNGWLEGSGWVDMTGARIAYKNWETEITAQPDGGFPARWENCAVLSGAANGKWFDKRCRDQLPYICQFGIV
On to B6, for which, in assay [7], the “Colo205 % killing (% of TRAIL activity)” value was -18%, the “H2122 % killing (% of TRAIL activity)” value was -5% and the “ST486 % killing (% of TRAIL activity)” value stood at 58%. Besides, the “ED50 ST486 (cell killing)” value in assay [4] is 168 nM.

B7: 71p88P1G1 (designed binder)
chain: EPPTQKPKKIVNAKKDVVNTKMFEELKSRLDTLAQEVALLKEQQALQTVCLKGTKVHMKCFLAFTQTKTFHEASEDCISRGGTLSTPQTGSENDALYEYLRQSVGNEAEIWLGLNGWMEGVGWVDMTGARIAYKNWETEITAQPDGGPPWRWENCAVLSGAANGKWFDKRCRDQLPYICQFGIV
On to B7, for which, in assay [7], the “Colo205 % killing (% of TRAIL activity)” value turned out to be 12%, the “H2122 % killing (% of TRAIL activity)” value is 0% and the “ST486 % killing (% of TRAIL activity)” value is 78%. For the same molecule, the “ED50 ST486 (cell killing)” value in assay [4] came out at 80 nM.

B8: 029-15.A3C (designed binder)
chain: EPPTQKPKKIVNAKKDVVNTKMFEELKSRLDTLAQEVALLKEQQALQTVCLKGTKVHMKCFLAFTQTKTFHEASEDCISRGGTLSTPQTGSENDALYEYLRQSVGNEAEIWLGLNRATLRPRWVDMTGARIAYKNWETEITAQPDGGKNCAVLSGAANGKWFDKRCRDQLPYICQFGIV
notes: ATRIMER; also called 4a8c
For B8, in assay [2], the “% cell death of H2122 and A2780 cells” value is above 50%. In addition, in assay [3], the Ka came out at 1.74e+08 M⁻¹, the Kd stood at 5.74 nM, the koff is 0.000362 s⁻¹ and the kon was determined as 63000 M⁻¹ s⁻¹.

The koff is the first-order rate constant of dissociation. The term kon denotes a measure of how fast the partners come together.
